Measured values as given in article doi:10.1101/2021.03.05.434000 (bioRxiv, 2021).

Molecular target: the molecule itself
Experiment: crystal structure

B1: NCAP segment 179-GSQASS-184 (peptide)
peptide: GSQASS
B1: binds.

B2: NCAP segment 217-AALALL-222 (peptide)
peptide: AALALL
B2: binds.

B3: NCAP segment 243-GQTVTK-248 (peptide)
peptide: GQTVTK
B3: binds.
